# Data taken from paper PMC12485088.
# T1: full-length human CXCR4 with a C-terminal Flag-tag (human), P61073
# T1 chain: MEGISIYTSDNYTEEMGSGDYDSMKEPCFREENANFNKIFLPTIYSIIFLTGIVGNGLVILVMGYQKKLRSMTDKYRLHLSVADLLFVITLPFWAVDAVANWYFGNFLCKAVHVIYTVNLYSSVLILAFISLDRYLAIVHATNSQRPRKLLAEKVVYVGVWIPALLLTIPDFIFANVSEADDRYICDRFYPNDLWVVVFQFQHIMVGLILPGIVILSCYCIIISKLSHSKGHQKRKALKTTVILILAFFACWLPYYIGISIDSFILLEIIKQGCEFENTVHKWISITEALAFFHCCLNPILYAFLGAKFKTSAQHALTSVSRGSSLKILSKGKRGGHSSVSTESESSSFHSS
# Legend:
# [1] = target: full-length human CXCR4 with a C-terminal Flag-tag (human) (UniProt P61073); test: cryo-EM structure
# [2] = target: T1, full-length human CXCR4 with a …; test: cryo-EM structure; conditions: remark: other sources report otherwise
# [3] = target: T1, full-length human CXCR4 with a …; test: native gel or EMSA; conditions: remark: other sources report otherwise
Molecule,stoichiometry N (gp120 per CXCR4 tetramer) [1],stoichiometry N (protomers in the oligomer) [2],stoichiometry N (protomers in the oligomer (main peak)) [3]
gp120^HIV-2-CD4 complex (from UniProt P01730 26-388),2,–,–
"full-length human CXCR4 with a C-terminal Flag-tag, P61073 1-352 (receptor) MEGISIYTSDNYTEEMGSGDYDSMKEPCFREENANFNKIFLPTIYSIIFLTGIVGNGLVILVMGYQKKLRSMTDKYRLHLSVADLLFVITLPFWAVDAVANWYFGNFLCKAVHVIYTVNLYSSVLILAFISLDRYLAIVHATNSQRPRKLLAEKVVYVGVWIPALLLTIPDFIFANVSEADDRYICDRFYPNDLWVVVFQFQHIMVGLILPGIVILSCYCIIISKLSHSKGHQKRKALKTTVILILAFFACWLPYYIGISIDSFILLEIIKQGCEFENTVHKWISITEALAFFHCCLNPILYAFLGAKFKTSAQHALTSVSRGSSLKILSKGKRGGHSSVSTESESSSFHSS",–,4,4
